Measurements taken from US20260055398A1, “IMPROVED POLYMER DEGRADING ENZYMES” (CAMBRIDGE ENTERPRISE LIMITED, priority 2022, published 2026).

How the values were obtained:
[1] = Enzymatic degradation of PET (nanoparticles, film), HPLC of released TPA and MHET; type: biochemical
Excerpt: (A) Sequence network of currently known PETases and a novel esterase metagenomic-derived, RR11O2. […] Grey nodes represent sequences extracted from MGnify and NCBI. Red node represents RR11O2, blue nodes represent known PETases, green and orange nodes represent reported cutinases and esterases showing PET activity, respectively, and light blue nodes represent described polyester degrading enzymes in the literature. To putatively characterise sequence clusters, the identification of PETases, cutinases, esterases and RR11O2 in the network helped to define the potential clusters. The cluster of RR11O2, CI5En2 and PETase are written in grey. (B) PET hydrolases catalyze the depolymerization of poly(ethylene terephthalate) (PET) to bis(2-hydroxyethyl) terephthalate (BHET), mono(2-hydroxyethyl)-terephthalic (MHET) or terephthalic acid (TPA) and ethylene glycol (EG). During characterizations via high-performance liquid chromatography (HPLC) MHET and TPA have been identified as main products. […] Absorbance at 250 nm was monitored.
(A) Enrichment of variants with higher activity compared to wildtype after sorting the ep-PCR library of CI5En2. […] Amount of the released monomers TPA and MHET was determined via HPLC and corresponding standard curves for TPA and MHET. […]
HPLC analysis of the products released after one week incubation at 30° C. using 6 μM pExp-bla-CI5En2-WT. Absorbance at 250 nm was monitored which detects released TPA and MHET.
To detect the release of TPA, MHET and BHET in the presence of various enzymes, aliquots were taken from reaction mixtures, turnover was stopped by addition of an equal volume of methanol containing 0.5% formic acid, centrifuged (16,100×g, 15 min) and analysed by HPLC (1260 Infinity II, Agilent; Nucleodur C18 analytical EC standard column (5 μm, 4×125 mm, Macherey-Nagel, Germany). As the mobile phase mixtures of buffer A (0.1% formic acid in distilled water) and buffer C (distilled water), as well as buffer D (acetonitrile) were used at a flow rate of 1 mL/min. Buffer A was kept at 20% for the whole run. […]

[2] = Light scattering of microdroplets with enzyme and PET nanoparticles; type: biochemical; details: 600 nM enzyme co-encapsulated with PET nanoparticles, versus buffer control
Description: (A) As described in FIG. 1, for the screening of metagenomic libraries for esterase activity isolated environmental DNA (eDNA) was cloned into plasmids. After the transformation of bacterial cells, single ones were co-encapsulated in microdroplets with lysis agent and the fluorescein dihexanoate substrate. After an off-chip incubation, the droplets were reinjected into the FADS sorting device and positive hits selected. After DNA recovery the re-screening and sequencing lead to a novel esterase showing promiscuous activity on PET. This enzyme was used to generate a sequence network together with known PETases. CI5En2 was identified in of the clusters as a novel PET hydrolase. This enzyme was subjected to a directed evolution campaign. Single bacterial cells were encapsulated in microdroplets together with lysis agent and PET nanoparticles serving as the substrate of the assay. Droplets were incubated in droplet chambers and reinjected into the sorting module. The SADS module relies on fiber optics integrated into a chip at a 90° angle. Schematic picture showing the main principle of the assay. […] The dielectrophoretic sorting of “positive” droplets is triggered when the measured value is within a user-defined threshold. (C) Histogram of the detected light scattering for co-encapsulated CI5En2 (600 nM) or a buffer control and PET nanoparticles. […]

- detected light scattering signal of droplets [2]: decreases over time
B1: CI5En2: novel PET hydrolase identified from a sequence network cluster; amino acid SEQ ID NO. 2 (protein)
chain: MADYAKGPAPTVALLTAPAGPYQTATYKIAAADAKAFNYGGATVHYPVAKAPGETFGVVVMVPGFLAFQAVYDWLVSRVASHGFVVVNMDTVGRGDYPDERAEQAAGALRHVVSLAQAGTAPYAPVADTSRRAVMGNSMGGGASLSAAVVDPTLKAVVALQPWHTTKSFTGVASPTLVVACEKDSIAPNKSHSDVFYNSLSAALPRAEIEMRGAGHLCATFLATAAQKTTMAKSSVAWLKRFLDNDMRYDAMVKGGIDQGEFSRFVV
modifications: C15EN2
- activity against PET nanoparticles with different crystallinity ([1]; amorphous and crystalline PET NPs): showed activity
- PET degrading activity compared with IsPETase and LCC ([1]; at 30° C.): activity comparable to IsPETase and higher than LCC
